In paper PMC11032371:

What was measured:
K48-diUb = K48-diUb (UniProt P0CG48); assay: ITC; 293 K; 50 mM HEPES pH 7.4, 50 mM NaCl, 0.5 mM TCEP; cell 50–100 μM, syringe usually 10-fold; 20 injections of 2 μl; averages of at least two experiments; which partner was in the syringe not stated
K63-diUb = K63-diUb (UniProt P0CG48); assay: as above

Kd (K48-diUb): 47 µM
dH (K48-diUb): -5.87 kcal/mol
stoichiometry N (K48-diUb): 1.29
Kd (K63-diUb): 16.7 µM
dH (K63-diUb): -5.88 kcal/mol
stoichiometry N (K63-diUb): 1.71
Substance: N4BP1 (850–893) (from UniProt Q6A037 850-893) (domain or fragment)
